Experiment [1] has as its target T1, PD-1抗原 (UniProt Q15116 25-167, limits assumed). Kind of experiment: SPR (Biacore T200), antibody captured by anti-human Fc on CM5, PD-1 antigen as analyte, 1:1 model, second repeat.
Experiment [2] deals with T1, PD-1抗原. Kind of experiment: SPR (Biacore T200), antibody captured by anti-human Fc on CM5, PD-1 antigen as analyte, 1:1 model, first repeat. (SPR reads the build-up and loss of mass on a sensor chip optically.)
Experiment [3] addresses T1, PD-1抗原. The experiment in a line: SPR (Biacore T200), antibody captured by anti-human Fc on CM5, PD-1 antigen as analyte, mean of two repeats.

For orientation: Kd means the free concentration of one partner at which half of the binding sites on the other are occupied at equilibrium, for simple one-to-one binding. The low end stands for tighter binding, the high end for weaker binding.

T1 sequence (Q15116 25-167 limits assumed): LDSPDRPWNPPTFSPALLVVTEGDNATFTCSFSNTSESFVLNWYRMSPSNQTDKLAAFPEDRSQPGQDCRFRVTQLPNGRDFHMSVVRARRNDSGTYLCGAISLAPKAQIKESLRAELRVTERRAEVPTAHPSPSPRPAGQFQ

B1: 抗人PD-1的单克隆抗体ZMR01 (antibody, V domains shown)
VH: QVQLVQSGAEVKKPGASVKVSCKASGYTFTNYWIHWVRQAPGQGLEWMGEIDPYDSYTNYNQKFKGRVTMTVDKSTSTVYMELSSLRSEDTAVYYCARPGFTYGGMDFWGQGTLVTVSS
VL: DIQMTQSPSSLSASVGDRVTITCKSSQSLFNSGNQKNYLAWYQQKPGKVPKLLIYGASTRDSGVPYRFSGSGSGTDFTLTISSLQPEDVATYYCQNDHYYPYTFGGGTKVEIK
B1: the Kd was determined as 1.82 nM with PD-1抗原 [1], 1.91 nM in the experiment with PD-1抗原 [2] and 1.87 nM in the experiment with PD-1抗原 [3].

The record behind these values is patent CN110404066A (QILU PHARMACEUTICAL CO LTD, dated 2019).
